Reference: patent US20180207087A1, “KIT AND AESTHETIC SYSTEM FOR PREVENTION OF SKIN AGING” (priority 2017, published 2018)

Test system: adipose tissue
Assay type: in vivo, human
Text: Thus, by adjusting the single dose of hyaluronidase in the injection composition for topical fat removal of the present invention to 300 IU to 600 IU, the side effects from using the drug are minimized and yet fat removal over a wide area can be carried out using a minimal volume. It has been shown in clinical trials that at a hyaluronidase activity of 300 IU and an injection volume of 1 cc, the diameter of the diffusion range for the injection composition is about 1 cm. Thus, by injecting the composition at narrow intervals between injection points of 0.5 to 2 cm, even fat removal as well as collagen production by skin stimulation can be facilitated.

Substance: hyaluronidase
- amount at which adipose cells are excessively hydrolyzed, causing concerns about dimpling or subcutaneous bleeding (human, in vivo, sc): above 600 IU
- minimum amount of hyaluronidase exhibiting efficacy (single dose): 300 IU
